Experimental data reported in patent publication US20220363777A1 (GSP ENTERPRISE, published 2022).

How the values were obtained:
[1] = target: T1, human Cripto-1 in human cancer tissue (tissue array BCN801) (human, UniProt P13385 31-150, GPI-anchor (thought to be bound to the cell membrane surface by GPI-anchors)); assay: immunostaining of a human cancer tissue array, ALEXA568-labeled anti-human IgG secondary antibody
T1 construct: whole, on cells; Endogenous protein detected by immunostaining of pancreas, thyroid, prostate, stomach, cervical, colorectal and breast cancer tissue; also called CR-1
T1 sequence (looked up): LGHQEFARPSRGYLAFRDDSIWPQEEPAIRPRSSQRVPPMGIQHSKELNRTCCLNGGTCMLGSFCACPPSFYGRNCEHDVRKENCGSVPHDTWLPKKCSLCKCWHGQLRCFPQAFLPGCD
Procedure: Immunostaining was performed on a human cancer tissue array (BCN801, US Biomax Inc.). The #35 clone was used as a primary antibody. ALEXA568-labeled anti-human IgG goat antibody (Invitrogen) was used as a secondary antibody to detect human Cripto-1 in each cancer tissue (pancreas cancer tissue, thyroid gland cancer tissue, prostate cancer tissue, stomach cancer tissue, cervical cancer tissue, colorectal cancer tissue, and breast cancer tissue). These cancer tissues contained cancer stem cells as well as cancer cells, and Cripto-1 was thought to be bound to the surface of the cell membrane of the cancer stem cells by GPI-anchors. In a negative control experiment, the signal background was confirmed by using only the secondary antibody. FIGS. 3 to 5 show the results.

[2] = target: T2, extracellular domain of human Cripto-1, soluble form, with N-terminal His-tag (human, limits assumed); assay: screening of a phage-displayed human antibody library
T2 construct: Prepared in soluble form by the method of Alam et al., Int J Mol Sci 2018; also called purified human Cripto-1; CR-1
T2 chain: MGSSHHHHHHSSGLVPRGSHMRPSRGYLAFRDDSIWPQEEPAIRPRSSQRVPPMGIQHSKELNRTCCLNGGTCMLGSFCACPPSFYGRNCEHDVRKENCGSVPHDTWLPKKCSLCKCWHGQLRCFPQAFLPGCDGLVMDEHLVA
Procedure: The extracellular domain of human Cripto-1 contains the amino acid sequence represented by SEQ ID NO: 11, and has a His-tag sequence having the amino acid sequence represented by SEQ ID NO: 12 at its N-terminus. The extracellular domain of human Cripto-1 was prepared in its soluble form in accordance with the method disclosed in Alam. et. al., Int J Mol Sci. 2018, 26; 19 (11). The antibody library used as a screening target is described in Sakai, K. et al., Biochemistry 46 (1): 253-62, and the subclass of the antibody is IgG.

binding result [1]: binds
binding result [2]: binds
B1: #35 clone antibody (human-derived anti-human Cripto-1 monoclonal antibody) (antibody, V domains shown)
VH: QVQLQQSGPGLVKPSQTLSLTCAISGNSVSSNSAAWNWIRRSPSRGLEWLGRTYYRSKWYNDYAVSVKSRITIKPDTSKNQFSLQLNSVTPEDTAMYYCARGFCSGGRCYSFDYWGPGTLVTVSS
VL: QSVLTQPASVSGSPGQSITISCTGTDSDVGAYGSASWYRHSPGKAPQLIIYDVTNRPSGVSNRFYGSKSGNTASLTISGLQAEDEADYYCQAWDSGIHVVFGGGTQLTVLG
notes: The library subclass is IgG; also called Clone #35
